Reference: patent publication US20220324969A1 (MYTHIC THERAPEUTICS, published 2022)
Numbering of substitutions follows the chain as printed. Names and notes keep the numbering of the source.

B1: MYT1239 (antibody, V domains shown)
VH: QVQLQQPGAEVVKPGASVKMSCKASGYTFTSYYIHWIKQTPGQGLEWVGVIYPGNDDISYNQKFQHKATLTADKSSTTAYMQLSSLTSEDSAVYYCAREVRLRYFDVWGQGTTVTVSS
VL: EIVLTQSPGSLAVSPGERVTMSCKSSQSVFFSSSQKNYLAWYQQIPGQSPRLLIYWASTRESGVPDRFTGSGSGTDFTLTISSVQPEDLAIYYCHQYLSSRTFGQGTKLEIK
notes: IgG; IMGN779 VH variant #27 (G66H)
B2: MYT2643 (antibody, V domains shown)
VH: B1 VH with H66G
VL: B1 VL with Y97H
notes: IgG; IMGN779 VL variant #27 (Y97H)
B3: MYT2621 (antibody, V domains shown)
VH: B1 VH with H66G
VL: B1 VL with S28H
notes: IgG; IMGN779 VL variant #5 (S28H)
B4: MYT2619 (antibody, V domains shown)
VH: B1 VH with H66G
VL: B1 VL with S26H
notes: IgG; IMGN779 VL variant #3 (S26H)
B5: MYT2637 (antibody, V domains shown)
VH: B1 VH with H66G
VL: B1 VL with T59H
notes: IgG; IMGN779 VL variant #21 (T59H)
B6: MYT2631 (antibody, V domains shown)
VH: B1 VH with H66G
VL: B1 VL with Y38H
notes: IgG; IMGN779 VL variant #15 (Y38H)
B7: MYT2647 (antibody, V domains shown)
VH: B1 VH with H66G
VL: B1 VL with R101H
notes: IgG; IMGN779 VL variant #31 (R101H)
B8: MYT2644 (antibody, V domains shown)
VH: B1 VH with H66G
VL: B1 VL with L98H
notes: IgG; IMGN779 VL variant #28 (L98H)
B9: MYT2646 (antibody, V domains shown)
VH: B1 VH with H66G
VL: B1 VL with S100H
notes: IgG; IMGN779 VL variant #30 (S100H)
B10: MYT2634 (antibody, V domains shown)
VH: B1 VH with H66G
VL: B1 VL with W56H
notes: IgG; IMGN779 VL variant #18 (W56H)
B11: MYT2636 (antibody, V domains shown)
VH: B1 VH with H66G
VL: B1 VL with S58H
notes: IgG; IMGN779 VL variant #20 (S58H)
B12: MYT1247 (antibody, V domains shown)
VH: B1 VH with H66G, Y104H
VL: B1 VL
notes: IgG; IMGN779 VH variant #35 (Y104H)
B13: MYT1243 (antibody, V domains shown)
VH: B1 VH with H66G, V100H
VL: B1 VL
notes: IgG; IMGN779 VH variant #31 (V100H)
B14: MYT1250 (antibody, V domains shown)
VH: B1 VH with H66G, V107H
VL: B1 VL
notes: IgG; IMGN779 VH variant #38 (V107H)
B15: MYT1241 (antibody, V domains shown)
VH: B1 VH with H66G, R98H
VL: B1 VL
notes: IgG; IMGN779 VH variant #29 (R98H)
B16: MYT2627 (antibody, V domains shown)
VH: B1 VH with H66G
VL: B1 VL with S34H
notes: IgG; IMGN779 VL variant #11 (S34H)
B17: MYT2623 (antibody, V domains shown)
VH: B1 VH with H66G
VL: B1 VL with F30H
notes: IgG; IMGN779 VL variant #7 (F30H)
B18: MYT1248 (antibody, V domains shown)
VH: B1 VH with H66G, F105H
VL: B1 VL
notes: IgG; IMGN779 VH variant #36 (F105H)
B19: MYT2628 (antibody, V domains shown)
VH: B1 VH with H66G
VL: B1 VL with Q35H
notes: IgG; IMGN779 VL variant #12 (Q35H)
B20: MYT2635 (antibody, V domains shown)
VH: B1 VH with H66G
VL: B1 VL with A57H
notes: IgG; IMGN779 VL variant #19 (A57H)
B21: MYT2641 (antibody, V domains shown)
VH: B1 VH with H66G
VL: B1 VL with H95A
notes: IgG; IMGN779 VL variant #25 (H95A)
B22: MYT2629 (antibody, V domains shown)
VH: B1 VH with H66G
VL: B1 VL with K36H
notes: IgG; IMGN779 VL variant #13 (K36H)
B23: MYT2620 (antibody, V domains shown)
VH: B1 VH with H66G
VL: B1 VL with Q27H
notes: IgG; IMGN779 VL variant #4 (Q27H)
B24: MYT2640 (antibody, V domains shown)
VH: B1 VH with H66G
VL: B1 VL with S62H
notes: IgG; IMGN779 VL variant #24 (S62H)
B25: MYT2630 (antibody, V domains shown)
VH: B1 VH with H66G
VL: B1 VL with N37H
notes: IgG; IMGN779 VL variant #14 (N37H)
B26: MYT2645 (antibody, V domains shown)
VH: B1 VH with H66G
VL: B1 VL with S99H
notes: IgG; IMGN779 VL variant #29 (S99H)
B27: MYT1246 (antibody, V domains shown)
VH: B1 VH with H66G, R103H
VL: B1 VL
notes: IgG; IMGN779 VH variant #34 (R103H)
B28: MYT2638 (antibody, V domains shown)
VH: B1 VH with H66G
VL: B1 VL with R60H
notes: IgG; IMGN779 VL variant #22 (R60H)
B29: MYT2625 (antibody, V domains shown)
VH: B1 VH with H66G
VL: B1 VL with S32H
notes: IgG; IMGN779 VL variant #9 (S32H)
B30: MYT2622 (antibody, V domains shown)
VH: B1 VH with H66G
VL: B1 VL with V29H
notes: IgG; IMGN779 VL variant #6 (V29H)
B31: MYT2642 (antibody, V domains shown)
VH: B1 VH with H66G
VL: B1 VL with Q96H
notes: IgG; IMGN779 VL variant #26 (Q96H)
B32: MYT2648 (antibody, V domains shown)
VH: B1 VH with H66G
VL: B1 VL with T102H
notes: IgG; IMGN779 VL variant #32 (T102H)
B33: MYT2632 (antibody, V domains shown)
VH: B1 VH with H66G
VL: B1 VL with L39H
notes: IgG; IMGN779 VL variant #16 (L39H)
B34: MYT1245 (antibody, V domains shown)
VH: B1 VH with H66G, L102H
VL: B1 VL
notes: IgG; IMGN779 VH variant #33 (L102H)
B35: MYT2618 (antibody, V domains shown)
VH: B1 VH with H66G
VL: B1 VL with S25H
notes: IgG; IMGN779 VL variant #2 (S25H)
B36: MYT2617 (antibody, V domains shown)
VH: B1 VH with H66G
VL: B1 VL with K24H
notes: IgG; IMGN779 VL variant #1 (K24H)
B37: MYT2626 (antibody, V domains shown)
VH: B1 VH with H66G
VL: B1 VL with S33H
notes: IgG; IMGN779 VL variant #10 (S33H)
B38: MYT2624 (antibody, V domains shown)
VH: B1 VH with H66G
VL: B1 VL with F31H
notes: IgG; IMGN779 VL variant #8 (F31H)
B39: MYT2639 (antibody, V domains shown)
VH: B1 VH with H66G
VL: B1 VL with E61H
notes: IgG; IMGN779 VL variant #23 (E61H)
B40: MYT1244 (antibody, V domains shown)
VH: B1 VH with H66G, R101H
VL: B1 VL
notes: IgG; IMGN779 VH variant #32 (R101H)
B41: MYT1335 (antibody, V domains shown)
VH: QVQLVQSGAEVKKPGASVKVSCKASHYTFTNYDINWVRQAPGQGLEWIGWIYPGDGSTKYNEKFKAKATLTADTSTSTAYMELRSLRSDDTAVYYCASGYEDAMDYWGQGTTVTVSS
VL: DIQMTQSPSSLSASVGDRVTINCKASQDINSYLSWFQQKPGKAPKTLIYRANRLVDGVPSRFSGSGSGQDYTLTISSLQPEDFATYYCLQYDEFPLTFGGGTKVEIK
notes: IgG; vadastuximab VH variant #1 (G26H)
B42: MYT1337 (antibody, V domains shown)
VH: B41 VH with H26G, T28H
VL: B41 VL
notes: IgG; vadastuximab VH variant #3 (T28H)
B43: MYT1338 (antibody, V domains shown)
VH: B41 VH with H26G, F29H
VL: B41 VL
notes: IgG; vadastuximab VH variant #4 (F29H)
B44: MYT1336 (antibody, V domains shown)
VH: B41 VH with H26G, Y27H
VL: B41 VL
notes: IgG; vadastuximab VH variant #2 (Y27H)
B45: MYT1339 (antibody, V domains shown)
VH: B41 VH with H26G, T30H
VL: B41 VL
notes: IgG; vadastuximab VH variant #5 (T30H)

Target: CD33 (Sino Biological, Cat #12238-H08H) (UniProt P20138 18-259)
Sequence (P20138 18-259 limits assumed): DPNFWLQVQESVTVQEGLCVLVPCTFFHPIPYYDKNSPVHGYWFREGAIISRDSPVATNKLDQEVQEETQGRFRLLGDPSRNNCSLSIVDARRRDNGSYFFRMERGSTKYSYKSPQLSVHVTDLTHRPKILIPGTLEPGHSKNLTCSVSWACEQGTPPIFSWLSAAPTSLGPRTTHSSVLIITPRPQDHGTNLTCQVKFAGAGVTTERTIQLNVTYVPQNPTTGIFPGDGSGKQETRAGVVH
Test: BLI, IgG captured on anti-human Fc sensor, 50 nM CD33, pH 7.4 vs pH 5.4

Binding result, binds:
B1
B2
B3
B4
B5
B6
B7
B8
B9
B10
B11
B12
B13
B14
B15
B16
B17
B18
B19
B20
B21
B22
B23
B24
B25
B26
B27
B28
B29
B30
B31
B32
B33
B34
B35
B36
B37
B38
B39
B40
B41
B42
B43
B44
B45
